Assays:
Assay in all cases: co-immunoprecipitation, transfected HEK293T cells, SDS-PAGE/immunoblot
pro-caspase-10 = molecular target: T1, pro-caspase-10 (UniProt Q92851 1-521, limits assumed)
T1 sequence (looked up): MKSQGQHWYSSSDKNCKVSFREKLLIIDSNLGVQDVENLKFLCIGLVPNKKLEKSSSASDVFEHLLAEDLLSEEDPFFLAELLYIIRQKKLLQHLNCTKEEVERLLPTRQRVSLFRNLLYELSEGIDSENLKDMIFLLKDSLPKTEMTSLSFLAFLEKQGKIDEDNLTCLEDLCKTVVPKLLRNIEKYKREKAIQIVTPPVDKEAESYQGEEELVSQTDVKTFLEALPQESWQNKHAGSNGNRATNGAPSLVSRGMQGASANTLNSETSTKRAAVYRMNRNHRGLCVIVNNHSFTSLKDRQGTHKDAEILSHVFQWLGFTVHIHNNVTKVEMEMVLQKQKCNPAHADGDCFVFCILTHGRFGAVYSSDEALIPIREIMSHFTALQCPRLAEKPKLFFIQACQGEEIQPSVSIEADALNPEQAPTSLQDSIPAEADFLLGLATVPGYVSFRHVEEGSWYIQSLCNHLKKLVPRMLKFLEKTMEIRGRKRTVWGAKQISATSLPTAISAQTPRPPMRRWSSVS
Procedure: (§1) The TUCAN polypeptides were expressed by transient transfection in HEK293T cells together with epitope-tagged pro-caspase-9 or other proteins. […] Cell lysates were prepared from transfected cells and immunoprecipitations were performed using anti-Flag or anti-Myc antibodies, followed by SDS-PAGE/immunoblot analysis.

pro-caspase-8 = pro-caspase-8 (UniProt Q14790 1-479, limits assumed)
Chain of pro-caspase-8 (Q14790 whole entry): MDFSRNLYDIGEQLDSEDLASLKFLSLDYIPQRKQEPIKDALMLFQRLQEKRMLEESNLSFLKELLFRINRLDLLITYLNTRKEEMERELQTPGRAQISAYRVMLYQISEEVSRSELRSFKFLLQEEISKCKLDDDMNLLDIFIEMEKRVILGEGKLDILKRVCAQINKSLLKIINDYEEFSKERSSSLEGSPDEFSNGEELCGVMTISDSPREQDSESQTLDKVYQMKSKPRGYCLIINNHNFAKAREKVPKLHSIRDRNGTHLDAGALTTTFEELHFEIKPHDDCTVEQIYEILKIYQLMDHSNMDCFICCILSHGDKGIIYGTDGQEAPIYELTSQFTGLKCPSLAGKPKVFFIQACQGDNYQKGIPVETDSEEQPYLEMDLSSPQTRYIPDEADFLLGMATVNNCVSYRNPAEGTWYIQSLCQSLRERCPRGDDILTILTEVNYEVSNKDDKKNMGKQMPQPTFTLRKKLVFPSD
Procedure: as §1

CED4 = molecular target: T2, CED4 (UniProt P30429 1-549, limits assumed)
T2 sequence (looked up): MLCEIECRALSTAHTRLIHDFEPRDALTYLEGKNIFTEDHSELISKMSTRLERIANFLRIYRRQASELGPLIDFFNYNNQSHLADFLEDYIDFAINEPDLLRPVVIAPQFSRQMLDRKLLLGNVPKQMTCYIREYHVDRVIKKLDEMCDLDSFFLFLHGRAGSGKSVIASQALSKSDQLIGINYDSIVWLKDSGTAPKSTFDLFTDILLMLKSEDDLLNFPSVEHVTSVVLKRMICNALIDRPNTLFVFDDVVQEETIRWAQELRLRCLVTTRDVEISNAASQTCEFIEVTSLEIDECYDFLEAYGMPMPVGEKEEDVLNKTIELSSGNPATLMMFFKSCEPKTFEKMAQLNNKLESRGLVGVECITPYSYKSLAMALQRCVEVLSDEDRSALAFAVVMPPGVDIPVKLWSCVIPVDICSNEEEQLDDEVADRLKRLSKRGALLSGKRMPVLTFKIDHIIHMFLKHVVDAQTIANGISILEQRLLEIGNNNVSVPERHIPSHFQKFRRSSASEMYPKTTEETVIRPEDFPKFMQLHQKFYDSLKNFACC
Procedure: as §1

CARD9 = molecular target: T3, CARD9 (UniProt Q9H257 1-536, limits assumed)
T3 sequence (looked up): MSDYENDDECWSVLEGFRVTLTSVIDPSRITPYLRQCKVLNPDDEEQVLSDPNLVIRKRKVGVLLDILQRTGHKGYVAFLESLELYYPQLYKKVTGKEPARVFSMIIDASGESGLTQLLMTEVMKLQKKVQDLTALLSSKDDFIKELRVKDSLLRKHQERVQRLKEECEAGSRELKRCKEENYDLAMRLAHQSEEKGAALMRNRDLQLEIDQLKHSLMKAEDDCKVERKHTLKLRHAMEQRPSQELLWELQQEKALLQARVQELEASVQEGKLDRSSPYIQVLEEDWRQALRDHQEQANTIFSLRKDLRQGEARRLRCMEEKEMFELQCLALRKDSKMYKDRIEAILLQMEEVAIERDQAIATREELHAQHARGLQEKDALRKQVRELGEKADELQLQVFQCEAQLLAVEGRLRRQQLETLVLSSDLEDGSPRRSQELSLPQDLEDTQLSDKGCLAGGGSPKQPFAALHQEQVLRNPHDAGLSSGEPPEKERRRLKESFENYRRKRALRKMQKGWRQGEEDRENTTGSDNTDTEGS
Procedure: as §1

Apaf1 = molecular target: T4, Apaf1 (human, UniProt O14727 1-1248)
T4 sequence: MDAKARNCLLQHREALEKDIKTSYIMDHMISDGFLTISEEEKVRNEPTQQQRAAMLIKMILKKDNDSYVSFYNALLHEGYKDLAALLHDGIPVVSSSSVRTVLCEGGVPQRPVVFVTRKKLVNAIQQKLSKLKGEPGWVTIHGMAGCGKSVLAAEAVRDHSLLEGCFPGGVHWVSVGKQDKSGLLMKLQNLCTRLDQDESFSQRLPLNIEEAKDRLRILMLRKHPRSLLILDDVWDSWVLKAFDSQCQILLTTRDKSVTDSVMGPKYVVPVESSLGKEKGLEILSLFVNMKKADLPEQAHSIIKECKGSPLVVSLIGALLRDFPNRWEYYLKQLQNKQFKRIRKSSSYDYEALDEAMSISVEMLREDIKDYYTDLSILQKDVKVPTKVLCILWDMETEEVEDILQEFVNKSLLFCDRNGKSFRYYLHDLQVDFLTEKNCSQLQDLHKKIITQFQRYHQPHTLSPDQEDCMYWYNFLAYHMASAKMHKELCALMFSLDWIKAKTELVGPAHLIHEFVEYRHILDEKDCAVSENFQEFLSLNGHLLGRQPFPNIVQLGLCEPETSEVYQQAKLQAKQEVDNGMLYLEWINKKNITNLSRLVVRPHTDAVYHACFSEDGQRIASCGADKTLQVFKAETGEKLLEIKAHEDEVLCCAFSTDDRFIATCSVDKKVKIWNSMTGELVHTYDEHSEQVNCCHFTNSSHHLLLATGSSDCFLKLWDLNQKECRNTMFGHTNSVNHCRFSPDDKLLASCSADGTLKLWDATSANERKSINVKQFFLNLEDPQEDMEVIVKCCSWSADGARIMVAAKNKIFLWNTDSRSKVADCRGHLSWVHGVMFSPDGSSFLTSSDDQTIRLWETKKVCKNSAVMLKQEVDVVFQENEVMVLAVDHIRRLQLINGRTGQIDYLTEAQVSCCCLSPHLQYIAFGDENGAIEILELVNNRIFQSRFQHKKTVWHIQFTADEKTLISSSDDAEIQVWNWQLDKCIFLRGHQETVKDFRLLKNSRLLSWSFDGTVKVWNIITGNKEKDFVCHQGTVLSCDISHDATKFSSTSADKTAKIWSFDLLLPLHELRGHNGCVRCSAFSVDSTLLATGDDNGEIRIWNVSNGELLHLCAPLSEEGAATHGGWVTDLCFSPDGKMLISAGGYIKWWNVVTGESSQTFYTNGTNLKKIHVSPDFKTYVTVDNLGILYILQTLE
Procedure: as §1

cIAP1 = cIAP1 (UniProt Q13490 1-618, limits assumed)
Chain of cIAP1 (Q13490 whole entry): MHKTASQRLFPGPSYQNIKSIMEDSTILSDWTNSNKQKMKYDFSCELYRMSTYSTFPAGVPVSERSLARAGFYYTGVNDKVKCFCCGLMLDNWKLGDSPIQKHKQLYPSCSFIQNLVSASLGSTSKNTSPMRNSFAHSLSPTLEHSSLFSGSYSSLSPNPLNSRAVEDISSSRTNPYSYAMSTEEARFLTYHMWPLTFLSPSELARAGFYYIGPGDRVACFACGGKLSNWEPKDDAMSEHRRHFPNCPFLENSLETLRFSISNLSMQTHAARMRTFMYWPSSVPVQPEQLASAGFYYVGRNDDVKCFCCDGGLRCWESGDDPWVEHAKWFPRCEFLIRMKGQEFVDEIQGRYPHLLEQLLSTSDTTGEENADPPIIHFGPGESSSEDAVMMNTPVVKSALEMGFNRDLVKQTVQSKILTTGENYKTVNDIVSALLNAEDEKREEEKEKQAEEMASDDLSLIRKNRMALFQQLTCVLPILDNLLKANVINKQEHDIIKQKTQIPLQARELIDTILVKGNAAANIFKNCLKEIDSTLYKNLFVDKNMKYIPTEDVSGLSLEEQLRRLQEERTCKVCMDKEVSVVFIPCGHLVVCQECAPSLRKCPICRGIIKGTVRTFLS
Procedure: as §1

binding result (pro-caspase-10): no binding
binding result (pro-caspase-8): no binding
binding result (CED4): no binding
binding result (CARD9): no binding
binding result (Apaf1): no binding
binding result (cIAP1): no binding
B1: TUCAN (Tumor Up-regulated CARD-containing Antagonist of Caspase Nine), full-length (other)
chain: MMRQRQSHYCSVLFLSVNYLGGTFPGDICSEENQIVSSYASKVCFEIEEDYKNRQFLGPEGNVDVELIDKSTNRYSVWFPTAGWYLWSATGLGFLVRDEVTVTIAFGSWSQHLALDLQHHEQWLVGGPLFDVTAEPEEAVAEIHLPHFISLQGEVDVSWFLVAHFKNEGMVLEHPARVEPFYAVLESPSFSLMGILLRIASGTRLSIPITSNTLIYYHPHPEDIKFHLYLVPSDALLTKAIDDEEDRFHGVRLQTSPPMEPLNFGSSYIVSNSANLKVMPKELKLSYRSPGEIQHFSKFYAGQMKEPIQLEITEKRHGTLVWDTEVKPVDLQLVAASAPPPFSGAAFVKENHRQLQARMGDLKGVLDDLQDNEVLTENEKELVEQEKTRQSKNEALLSMVEKKGDLALDVLFRSISERDPYLVSYLRQQNL
notes: Full-length TUCAN expressed by transient transfection in HEK293T cells; also called full-length TUCAN; CARD-X

Source: patent US20030165887A1 (BURNHAM INSTITUTE, published 2003)
